Target: T1, His-tagged full-length ATF4 (mouse, UniProt Q06507 1-349)
T1 sequence (looked up): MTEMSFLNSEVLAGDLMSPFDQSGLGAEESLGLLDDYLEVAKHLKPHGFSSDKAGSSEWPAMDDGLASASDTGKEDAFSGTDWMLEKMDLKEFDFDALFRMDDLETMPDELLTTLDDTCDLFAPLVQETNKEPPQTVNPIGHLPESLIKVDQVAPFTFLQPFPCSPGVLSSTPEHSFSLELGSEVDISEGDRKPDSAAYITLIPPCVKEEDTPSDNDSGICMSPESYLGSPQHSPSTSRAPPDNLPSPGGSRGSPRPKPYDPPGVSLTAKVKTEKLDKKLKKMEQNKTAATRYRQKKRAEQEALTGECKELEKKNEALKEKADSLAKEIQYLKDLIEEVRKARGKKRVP
Experiment: pull-down

B1: GST-Hop2^81−147 (domain or fragment, mouse, UniProt O35047 81-147, looked up)
chain: VSDADLHGLDASIVALTAKVQSLQQSCRHMEAELKELTSALTTPEMQKEIQELKKECAQYTERLKNI
Question: Does B1 bind?
Answer: Result: binds

— publication PMC7422940 (Journal of bone and mineral research : the official journal …, 2019)
